Results: patent US11898183B2, “Programmed microorganisms to attenuate a disease” (priority 2020, dated 2024)

System: pathway specific substrates
Test: Enzyme functionality of pathway enzyme homologs and fusion constructs in lysed E. coli cell extracts, product by HPLC
Format: biochemical, E. coli BL21
Details: recombinant E. coli BL21 clone, lysed cell extract
Outline: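 Enzymes and fusion constructs were expressed in E. coli BL21 (pET28, T7 promoter) with 0.1 mM IPTG at 30 °C for ~20 h in M9 medium. Cleared freeze-thaw lysates were incubated with pathway-specific substrates. Products were quantified by HPLC relative to empty-plasmid lysates.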

B1: hydroxycinnamoyl-CoA: quinate hydroxycinnamoyltransferase p-coumaroyl quinate 3′-hydroxylase fusion (HCTC3H) (SEQ ID NO: 14) Coffea canephora (protein, listed as Coffea canephora)
chain: MKIEVKESTMVRPAQETPGRNLWNSNVDLVVPNFHTPSVYFYRPTGSSNFFDAKVLKDALSRALVPFYPMAGRLKRDEDGRIEIECNGEGVLFVEAESDGVVDDFGDFAPTLELRRLIPAVDYSQGISSYALLVLQVTYFKCGGVSLGVGMRHHAADGFSGLHFINSWSDMARGLDVTLPPFIDRTLLRARDPPQPQFQHIEYQPPPALKVSPQTAKSDSVPETAVSIFKLTREQISALKAKSKEDGNTISYSSYEMLAGHVWRCACKARGLEVDQGTKLYIATDGRARLRPSLPPGYFGNVIFTATPIAIAGDLEFKPVWYAASKIHDALARMDNDYLRSALDYLELQPDLKALVRGAHTFKCPNLGITSWVRLPIHDADFGWGRPIFMGPGGIAYEGLSFILPSPTNDGSMSVAISLQGEHMKLFQSFLYDIGGGGSGGGGSGGGGSMALLLILLPVAFIFLAYSLYERLRFKLPPGPRPKPVVGNIYDIKPVRFKCYAEWSKLYGPIFSVYFGSQLNTVVNTAELAKEVLKDNDQQLADRYRSRPSARMSRNGQDLIWADYGPHYVKVRKLCNLELFTPKRLEGLRPLREDEVTAMVDSIFKDCTKPENKGKSLLMRNYLGSVAFNNITRLTFGKRFMNSEGVVDEQGQEFKGIVSNGIRIGAKLSVADHIPWLRWMFVGENEDLDKHNARRDKLTRMIMEEHTLARQKSGNTKQHFVDALLTLQKQYELSDDTVIGLLWDMITAGMDTTTISVEWAMAELVKNPRVQQKAQEELDRVIGSDRIMTEADFAKLPYLQCVAKEALRLHPPTPLMLPHRANANVKIGGYDIPKGSIVHVNVWAIARDPAAWKNPLEFRPERFLEEDVDIKGHDYRLLPFGAGRRICPGAQLALNLVTSMLGHLLHHFTWSPPPGVRPEEIDLEESPGTVTYMRTPLQAVATPRLPAHLYNRVPVE
B1 was tested, and the “Enzyme activity in terms of product formation (in %)” value (“Enzyme activity in terms … (in %)” below) (substrate tested: Coumaroyl coA) was 89%.

B2: Caffeoyl CoA O-methyltransferase (CCoAOMT) (SEQ ID NO: 16) Eleocharis dulcis (protein)
chain: MSTTTTTQTKTETQSQTGAQNGAEQQTRHSEVGHKSLLQSDALYQYILETSVYPREPECMKELRDITAKHPWNLMTTSADEGQFLNLLLKLIGAKKTMEIGVYTGYSLLATALAIPEDGTILAMDINRENYELGLPVIEKAGVAHKIDFREGPALPVLDQLIEDPANLGSFDFIFVDADKDNYLNYHKRLIELVKVGGVIGYDNTLWNGSVVLPADAPMRKYIRYYRDFVLELNKALAADPRIEISQLPVGDGITLCRRVK
modifications: Depicts the amino acid sequence of enzyme Caffeoyl CoA O-methyltransferase (CCoAOMT)
For B2, the “Enzyme activity in terms … (in %)” value (substrate tested: Caffeoyl coA) was 61%.

B3: Caffeoyl CoA O-methyltransferase (CCoAOMT) (SEQ ID NO: 18) Chamaecyparis formosensis (protein)
chain: MATVEATKDSTQQVSRHQEVGHKSLLQSDALYQYILETSVYPREPEPMRELREITAKHPWNLMTTSADEGQFLHLLLKLINAKNTMEIGVYTGYSLLSTALALPDDGKILAMDINRENYELGLPVIQKAGVAHKIDFREGPALPVLDQMLENKEMHGSFDFIFVDADKDNYLNYHKRLIDLVKIGGVIGYDNTLWNGSVVAPPDAPMRKYVRYYRDFVIELNKALAADPRIEISQIPVGDGITLCRRII
modifications: Depicts the amino acid sequence of Caffeoyl CoA O-methyltransferase (CCoAOMT) of Chamaecyparis formosensis
With B3 the “Enzyme activity in terms … (in %)” value (substrate tested: Caffeoyl coA) was 95%.

B4: Bifunctional pinoresinol-lariciresinol reductase (DIRPLR) (SEQ ID NO: 20) Linum usitatissimum (protein, listed as Linum usitatissimum)
chain: MGRCRVLVVGGTGYIGKRIVKASIEHGHDTYVLKRPETGLDIEKFQLLLSFKKQGAHLVEASFSDHESLVRAVKLVDVVICTVSGAHSRSLLLQLKLVEAIKEAGNVKRFIPSEFGMDPARMGDALEPGRETFDLKMVVRKAIEDANIPHTYISANCFGGYFVGNLSQLGPLTPPSDKVTIYGDGNVKVVYMDEDDVATYTIMTIEDDRTLNKTMYFRPPENVITHRQLVETWEKLSGNQLQKTELSSQDFLALMEGKDVAEQIVIGHLYHIYYEGCLTNFDIDADQDQVEASSLYPEVEYTRMKDYLMIYL
With B4 the “Enzyme activity in terms … (in %)” value (substrate tested: Coniferyl alcohol) was 98%.

B5: Secoisolariciresinol dehydrogenase (SDH) (SEQ ID NO: 22) Juglans regia (protein, listed as Juglans regia)
chain: MNGTSSLLAPIAKRLAGKVALITGGASGIGESTARLFAEQGAKVIIADVQDELGFSVSQDKSINGAISYIHCDVTSESDVQNAVNTAVSKHGKLDIMFNTAGCTGQNKASILDHEQKDYKTVFDVNVLGSFLGAKHAAKVMIPVKRGTILFTASCVTESHGLASHSYTASKHAVVGLTKNLCVELGQYGIRVNCISPYGAATPLFLKGMGIDKKEKAEEILSSAANLKGPVLEAGDLAEAALFLASEESKYVSVLNLVVDGGYSATNVAFTETIQKFFT
B5 was tested, and the “Enzyme activity in terms … (in %)” value (substrate tested: Secoisolariciresinol) was 99%.

B6: CYP719 Coptis japonica (protein, UniProt Q948Y1 1-491, looked up)
(S)-canadine synthase: MEMNPLLVCATVAIVFATTTIIRILFSSSSLPQMKWPSGPRKLPIIGNLHQLGDDVLHVALAKLAKVHGSVMTIWIGSWRPVIVISDIEKAWEVLVNKSADYGARDMPEITKIASASWHTISTSDAGSFWQNVRKGLQSGAMGPLNVAAQNQYQERDMKRLIKAMSDEAANNNGIVKPLDHIKKNTVRLLTRLIFGQAFDDNKFIESMHYEIEDIIRISGYARLAEAFYYAKYLPSHKKAEREAFLVKCRVEELVRPLLSSKPPTNSYLYFLLSQNFEEEVIIFCIFELYLLGVDSTSSTTTWALAYLIREQGAQEKLYQDIRMTLGDVDLVKIEDVNKLKYLQGVVKETMRMKPIAPLAIPHKTAKETTLMGTKVAKGTRIMVNLYALHHNQNIWPDPYKFMPERFLEGETGTAYNKAMEQSFLPFSAGMRICAGMDLGKLQFAFALANLVNAFKWSCVEEGKLPDMGEELSFVLLMKTPLEARIAGRNV
For B6, the “Enzyme activity in terms … (in %)” value (substrate tested: Matairesinol) was 0%.

B7: CYP719 (SEQ ID NO: 24) Papaver somniferum (protein, listed as Papaver somniferum)
chain: MIMSNLWILTLISTILAVFAAVLIIFRRRISASTTEWPVGPKTLPIIGNLHILGGTALHVVLHKLAEVYGSVMTIWIGSWKPVIIVSDFDRAWEVLVNKSSDYSAREMPEITKIGTANWRTISSSDSGPFWATLRKGLQSVALSPQHLASQTAHQERDIIKLIKNLKDEAASGMVKPLDHLKKATVRLISRLIYGQDFDDDKYVEDMHDVIEFLIRISGYAQLAEVFYYAKYLPGHKRAVTGAEEAKRRVIALVRPFLQSNPATNTYLHFLKSQLYPEEVIIFAIFEAYLLGVDSTSSTTAWALAFLIREPSVQEKLYQELKNFTANNNRTMLKVEDVNKLPYLQAVVKETMRMKPIAPLAIPHKACKDTSLMGKKVDKGTKVMVNIHALHHTEKVWKEPYKFIPERFLQKHDKAMEQSLLPFSAGMRICAGMELGKLQFSFSLANLVNAFKWSCVSDGVLPDMSDLLGFVLFMKTPLEARIVPRL
In the case of B7, the “Enzyme activity in terms … (in %)” value (substrate tested: Matairesinol) is reported as 76%.

B8: CYP719 (SEQ ID NO: 26) Cinnamomum micranthum (protein)
chain: MEAIWTAVAIGIAAAVLMAFRGRQRQRLSRKPTQWPPGPTRLPLIGNMHQILLKGGDPFHVAINKLAQVYGPLMTVWFGTRQPTIIVSDHNLVWEVLVSKSADYAAREIPITLKPSLADFRTIVSSNAGPLWHSLRRGLQNGAIGPHSLSLQAPFQESDMAQMINNMIKEANLNGGVVKPFPHIRRAIIKLLARICFGCDFSDEEFDATMDFMVEEALRYSDDSRILDTFPPARFLPSVKRAVMQMEKVKLRLMECIGRPLDSPLPPTCYAHFLLSQSFPREVAIFSIFELFLLGVDSTGSTTMWGLGLLMQNQEAQQKLYQEIREHASCNEKGVVKVEELGKLEYLQAVAKETMRMKPIAPLAVPHQAARDTTLDGLHVAEGTTVLANLYALHYDPKVWDEPERFKPERFLESSKEFLGKRGQYSFLPFGAGMRACAGMEVGKLQLPFAICNLVNAFNWSNVVEKEAPKLIEGFSFILSMKTPLEARIVPRGI
modifications: Depicts the amino acid sequence of CYP719 of Cinnamomum micranthum
With B8 the “Enzyme activity in terms … (in %)” value (substrate tested: Matairesinol) was 97%.

B9: O-methyltransferase 3 (OMT) (SEQ ID NO: 28) Papaver somniferum (protein, listed as Papaver somniferum)
chain: MEVVSKIDQENQAKIWKQIFGFAESLVLKCAVQLEIAETLHNNVKPMSLSELASKLPAQPVNEDRLYRILHFLVHMKLFNKDATTQKYSLAPPAKYLLKGWEKSMVPSILSVTDKDFTAPWNHLGDGLTGNCNAFEKALGKGIRVYMRENPEKDQLFNEGMACDTRLFASALVNECKSIFSDGINTLAGVGRGTGTAVKAISKAFPDIKCTIHDLPEVTSKNSKIPRDVFKSVPSADAIFMKSILHEWNDEECIQILKRCKEAIPKGGKVIIADVVIDMDSTHPYSKSRLAMDLAMMLHTGGKERTEEDWKKLIDAAGFASCKITKLSALQSVIEAYPH
For B9, the “Enzyme activity in terms … (in %)” value (substrate tested: Pluviatolide) was 88%.

B10: O-methyltransferase 3 (OMT) (SEQ ID NO: 30) Sinopodophyllum hexandrum (protein)
chain: MEMAPTMDLEIRNGNGYGDSGEELLAAQAHIYNHIFNFISSMALKCAVELNIPEILHNHQPKAVTLSELVQALQIPQAKSACLYRLLRILVHSGFFAITKIQSEGDEEGYLPTLSSKLLLKNHPMSMSPCLLGLVNPTMVAPMHFFSDWFKRSDDMTPFEATHGASLWKYFGETPHMAEIFNEAMGCETRLAMSVVLKECKGKLEGISSLVDVGGGTGNVGRAIAEAFPNVKCTVLDLPQVVGNLKGSNNLEFVSGDMFQFIPPADVVFLKWILHDWNDEECIKILKRCKEAIPSKEEGGKLIIIDMVVNDHNKGSYESTETQLFYDLTLMALLTGTERTETEWKKLFVAAGFTSYIISPVLGLKSIIEVFP
modifications: Depcits amino acid sequence of O-methyltransferase 3 (OMT) of Sinopodophyllum hexandrum
B10 was tested, and the “Enzyme activity in terms … (in %)” value (substrate tested: Pluviatolide) was 99%.
